Reference: paper PMC8238635

Experiments:
[1] = molecular target: T1, Nsp8 (SARS-CoV-2 (taxid 2697049), UniProt P0DTD1 3943-4140); assay: EMSA; split bands; details: protein: recombinant, tags: N-terminal His6-TEV, cleaved, single strand
[2] = molecular target: T1, Nsp8; assay: SEC-MALS-SAXS; 1:1 complex, high affinity; details: protein: recombinant; tags: N-terminal His6-TEV, cleaved; label: 32P in EMSA; none in SEC; single strand
[3] = molecular target: Nsp8;Nsp12 (RdRp) (SARS-CoV-2 (taxid 2697049);SARS-CoV-2 …, UniProt P0DTD1;P0DTD1 3943-4140;4393-5324, |); assay: SEC-MALS-SAXS; excess RNA; low or nonexistent binding; details: protein: recombinant;recombinant, tags: N-terminal His6-TEV, cleaved;N-terminal His6-TEV, copies: 1;1
[4] = molecular target: T1, Nsp8; assay: SEC-MALS-SAXS; details: protein: recombinant; tags: N-terminal His6-TEV, cleaved

B1: short ssRNA (28 bases) (ssRNA)
RNA: CAUGCUACGCGUAGCAUGCUACGCGUAG
binding result ([1]; label: 32P in EMSA, none in SEC): binds

B2: long ssRNA without poly-U 5' end (ssRNA)
RNA: CAUGCUACGCGUAGCAUGCUACGCGUAGCAUG
binding result ([1]; label: 32P): binds

B3: long ssRNA (36 bases) (ssRNA)
RNA: UUUUCAUGCUACGCGUAGCAUGCUACGCGUAGCAUG
binding result [2]: binds

B4: dsRNA (long ssRNA paired to short ssRNA) (dsRNA)
RNA 1: UUUUCAUGCUACGCGUAGCAUGCUACGCGUAGCAUG
RNA 2: CAUGCUACGCGUAGCAUGCUACGCGUAG
binding result [3]: no binding | binding result [4]: binds
